The test system of data set [1] is corrosion tubercles on steel coupons. The experiment in a line: Biocorrosion of coated steel coupons in Duluth-Superior Harbor water, 8 weeks. On the set-up: concentration or dose not given beside the values. Conditions: silica gel coating, two months in DSH water. On the procedure: The steel coupons were washed with soap water, lightly brushed for a few seconds with a test tube brush, and then rinsed with Milli-Q water to remove any loose material. Each coupon was designated with a unique number and weighed before being randomly assigned to a specific experimental treatment.
Each compound or enzyme was added to 5 ml of the silica gel matrix to develop different coating treatments. These coatings were applied by dipping coupons into the appropriate gel mixture for 1 minute, and then the coating on the coupon surface was air-dried at room temperature for 2 hours.
Six treatments and three controls were investigated for corrosion rate and changes in bacterial communities (Table 10). Each treatment or control contained three replicate steel coupons. After the triplicate steel coupons were coated with each biochemical, enzyme or bacterial treatment, they were incubated in experimental microcosms constructed from 10-gallon glass aquaria (Aqueon Glass, 50.8 cm×25.4 cm×30.5 cm) (FIG. 24). Each microcosm was equipped with an aquarium pump (Aquarium Systems Mini-Jet 404) to constantly circulate the water (˜2 L hr−1), and covered with a piece of acrylic with one corner cut out to allow gas exchange. The coupons were hold with plastic holders and immersed in water taken from the DSH for 8 weeks and then recovered for analyses.
The coupons in each treatment was photographed by the end of the experiment. Biocorrosion was evaluated by the number and coverage of corrosion tubercles, and also by imaging of coupon surfaces with an environmental scanning electron microscope (ESEM). The coupon images were captured with DSLR camera immediately after being removed from the harbor water, and then tubercle numbers and total area in digital images were measured using the analyze menu within ImageJ software (NIH, Bethesda, Md., USA). Surface roughness measurements were also made after the exposed coupons were cleaned with ASTM G1-90 iron and steel chemical cleaning procedure (2 min in 37% HCl, 50 g/L SnCl2). A Hitachi TM-3030 ESEM was used to view details of the cleaned coupon surface and the 3D-View software was used to generate surface roughness measurements (SRa). Statistics analysis (T-tests) of the tubercle numbers, coverage and surface roughness were performed using Microsoft Excel software.

Data set [2] concerns bacterial communities at the surface of the steel. The data set can be described thus: 16S rDNA analysis of microbial community on steel coupons. Conditions: treated coupons. On the procedure:
After photo imaging, on each of the coupon surface, all material including biofilm and tubercles were scraped into a sterile 50 ml polypropylene centrifuge tube (Corning, N.Y., USA) using a steel scraper. A 0.5 g subsample of the surface material from each coupon sample was used for DNA extraction using PowerSoil DNA kit (MoBio Laboratories). The extracted DNA was used to sequence the V4 region of 16S rDNA gene and describe changes in the composition of bacterial communities. DNA samples were quantified with a NanoDrop 2000 Spectrophotometer (Thermo Scientific, Waltham, Mass. USA) and then sent overnight to the University of Minnesota Genomics Center for 16S rDNA sequencing. 30 samples were multiplexed into a single run of Illumina MiSeq paired-end 300 cycles, which was expected to generate a total of 15 million sequences of the 254 bp portions of the 16S rDNA V4 region.
Sequence data were processed and analyzed using the MOTHUR program. To ensure high quality data for analysis, sequence reads containing ambiguous bases, homopolymers >7 bp, more than one mismatch in the primer sequence, or an average per base quality score below 25 were removed. Sequences that only appear once in the total set were assumed to be a result of sequencing error and removed from the analysis. Chimeric sequences were also removed using the UCHIME algorithm within the MOTHUR program. […]

Data set [3] concerns the target GcL, quorum quenching lactonase from Geobacillus caldoxylosilyticus (Parageobacillus caldoxylosilyticus) (Geobacillus caldoxylosilyticus (Parageobacillus caldoxylosilyticus)). The data set can be described thus: X-ray crystal structure, homodimer interface analysis.
Data set [4] is described as follows: Lactonase assay (pH indicator, cresol purple), kinetic measurements. The data set is classed as biochemical. The method, then:
Kinetic measurements. The determination of GcL catalytic efficiency was performed by using a microplate reader (Synergy HTX, BioTek, USA) and the software Gen5.1 over a range of substrates (FIG. 2). The reactions were operate in a 96-well plate at a path length of 5.8 mm for a 200 μl reaction volume at room temperature. The catalytic parameters were achieved by fitting the data to Michaelis-Menten equation with the Graph-Pad Prism 5 software. When, Vmax was not reached, the catalytic efficiency was determined by fitting the linear part of Michaelis-Menten plot to a linear regression using Graph-Pad Prism 5.
Lactonase assay. The AHL lactonolysis consisting in the opening of the lactone ring generates a proton, and leads to an acidification of the media. This property allowed the characterization of the lactonases by using a pH indicator assay. To perform the experiment 5 μl of enzyme were added to a solution containing 10 μl of substrates at various concentrations and 185 μl of lactonase buffer (2.5 mM Bicine pH 8.3, 150 mM NaCl, 0.2 mM CoCl2, 0.2 mM cresol purple, 0.5% DMSO). This assay was performed at 25° C. and the time course of the lactones hydrolysis was recorded at 577 nm. The characterization of the enzyme was proceeding against a large panel of AHLs: C4-AHL, C6-AHL, C8-AHL, C10-AHL, 3-oxo-C8-AHL and against γ-Butyrolactone, γ-Heptalactone, γ-Nonalactone, γ-Decanolactone, δ-Valerolactone, δ-Octanolactone, δ-Nonalactone, δ-Decalactone, ε-Caprolactone, ε-Decalactone, Whiskey lactone.

The next data set has as its system algae and Zebra mussels. The experiment in a line: Antifouling activity of acrylic-lactonase coating, Lake Minnetonka, 1 month. As to conditions: 200 μg/mL, polycarbonate, controls BSA, copper oxide. On the procedure:
Various polycarbonate samples were submerged in Lake Minnetonka (Tonka bay marina) for 1 month. Coatings were prepared with 200 μg/mL of control ingredients (BSA or copper oxide (CuO)) and of lactonases (SsoPox and GcL). Large zebra mussels are circled.
We note that microscopy imaging highlights large differences in the surface colonization between the different treatments.

For another data set, the system named is Pseudomonas aeruginosa. The experiment in a line: Caenorhabditis elegans infection models (slow-killing, paralysis). The data set is classed as in vivo. Conditions: dose-dependent. From the text: FIG. 34A-34C show protection of Caenorhabditis elegans from infection by Pseudomonas aeruginosa by lactonases. Slow-killing, gut infection assay performed with P. aeruginosa. Lactonases SsoPox (A) and GcL (B) are sprayed in the petri dish plate, and final concentrations are given. (C) Paralysis assay by P. aeruginosa, and treatment with SsoPox. […] OP50 Escherichia coli strain serves as a non-virulent control.
The protection by lactonases is dose-dependent (FIG. 34) in both models.

In the next data set the test system is soil bacterial community. The data set can be described thus: Different lactonases on soil microbial community (Example 8). The data set is classed as cell-based. As to conditions: 7 days, vs inactive SsoPox 5A8. On the procedure: Principal component analysis (PCA) based on deep bacterial 16S rDNA sequences (Illumina V4 region).
The same experiments as described above were performed on the same soil microbial community but with two different lactonases, GcL, and Ssopox W263I. These enzymes differ primarily by their substrate specificity. […] This is important because different bacteria use different AHLs to communicate. Indeed, The structure of AHLs vary a lot with respect to the length of N-acyl chains (from C4 to C18), the hydroxyl or oxo group of the acyl chain and the saturated or unsaturated state of the carbon chain^1. The hydrophobicity of AHLs relates to their passive diffusion through membranes. […] In fact, regulatory circuits may be interconnected, like in P. aeruginosa^6, and allow for compensatory responses: if the LasI/LasR system is inactivated, the RhlI/RhlR system can still control LasI/LasR-spectific functions^7.

For data set [5] the following is noted: at 75° C.; cited from earlier work.
The nature of data set [6]: Paraoxonase activity of SsoPox variants after incubation at 80° C. The data set is classed as physicochemical. As to conditions: compared with wt enzyme and SsoPox W263I.
Data set [7] in a line: Enzymatic characterization of SsoPox 6 and SsoPox 19. The data set is classed as biochemical. Conditions: esters, lactones and phosphotriesters; compared with wt. From the text: We determined the ability of these two variants to hydrolyze a wide range of substrates, including esters, lactones and phosphotriesters (FIG. 23).

Values joined by “and” are separate entries in the source; they are usually repeats but may differ in a detail not shown here. Equal values may be shown once. Numbered stars: 1 amine (or outer) side, 2 acyl side, 3 side chain; on linkers, the order of the positions; unused ones are H or OH. Bridge positions count the residues as written; N and C are the ends. Square brackets hold non-standard residues; d marks the D form. Peptide text beside a SMILES is read from it. X1 = CC(C)CCCCCCCCC[C@H](CC(=O)[*:1])O[*:2]

On to `CC(C)CCCCCCCCC[C@@H]1CC(=O)N[C@@H](CCC(=O)O)C(=O)N[C@@H](CC(C)C)C(=O)N[C@H](CC(C)C)C(=O)N[C@@H](C(C)C)C(=O)N[C@@H](CC(=O)O)C(=O)N[C@H](CC(C)C)C(=O)N[C@@H](CC(C)C)C(=O)O1` [surfactin] (EL[dL]VD[dL]L; linker N-C via X1), for which, in [1], the “reduction of the coverage of corrosion tubercles” value is reported as 37% and the “reduction of the number (formation) of corrosion tubercles” value came to 31%. The “abundance of Burkholderiales, Pseudomonadales and Rhodospirillales” value in data set [2] was “significantly reduced”.

In [3], “GcL, quorum quenching lactonase from Geobacillus caldoxylosilyticus (Parageobacillus caldoxylosilyticus) (from UniProt A3FJ64 1-250) (enzyme)” displayed an interface surface between dimer of 1180 Å^2.

B1: GcL: lactonase isolated from the thermophilic bacteria Geobacillus caldoxylosilyticus, SEQ ID NO:1 (protein, listed as Parageobacillus caldoxylosilyticus)
chain: MTVKKLYFIPAGRCMLDHSSVNSALTPGKLLNLPVWCYLLETEEGPILVDTGMPESAVNNEGLFNGTFVEGQILPKMTEEDRIVNILKRVGYEPDDLLYIISSHLHFDHAGGNGAFTNTPIIVQRTEYEAALHREEYMKECILPHLNYKIIEGDYEVVPGVQLLYTPGHSPGHQSLFIETEQSGSVLLTIDASYTKENFEDEVPFAGFDPELALSSIKRLKEVVKKEKPIIFFGHDIEQEKSCRVFPEYI
Consider B1, for which, in [4] (AHL acyl chain length), the substrate specificity entry was “proficiently degrades lactones ranging from C4 to C12 AHLs”. Besides, the catalytic efficiencies in [4] (AHLs with both short and long acyl chains) is 10^4 to 10^6 M^−1·s^−1. Further, the Km in [4] (range over tested substrates (with the exception of C4-AHL)) is 0.5 to 20 µM and 0.67 to 21.1 µM. The inhibition of biofouling result in the data set with algae and Zebra mussels was “more efficient at inhibiting biofouling than controls”. Further, the “survival of Caenorhabditis elegans” value with Pseudomonas aeruginosa is recorded as “increase survival”. Besides, the “planktonic microbial community composition” value in the data set on soil bacterial community is “induce differential planktonic microbial community biases”. Further, in [5], the half-life was 2.542 ± 0.167 h.

B2: SsoPox 19: SsoPox variant with 19 node 55 mutations, SEQ ID NO:13 (protein)
chain: MKIPLVGKDEIEPREMGFTLIHEHLRVFSEAVRQQWPHLYNEDEEFRNAVNEVKTAMSYGVKTIVDPTVMGLGRDIRFMEKVVKATGINVIAATGIYIYTDLPFYFNNRSIDEIADLFIHDIKEGIQGTNNKAGFVKVAADEPGITKDVEKVIRAAAIAHKETKVPIITHSNAHNNTGLEQQRILMEEGVDPGKILIGHLGDTDNIDYIKKIADKGSFIGLDRYGLDLFLPVDKRNETTLKLIKDGYSDKIMISHDYCCTIDWGTAKPEYKPKLAPRWSITLIFEDTIPFLKRNGVNEEVIATIFKENPKKFFS
modifications: SsoPox19 variant
Regarding B2, the “paraoxon hydrolysis after incubation of different times at 80° C.” value in [6] was “withstanding better the incubation at 80 °C than the wt enzyme and SsoPox W263I”. In addition, in data set [7], the activity levels result was “extremely similar to those of the wt enzyme”.

B3: SsoPox: lactonase isolated from Sulfolobus solfataricus, SEQ ID NO:5 (protein, listed as Sulfolobus solfataricus)
chain: GMVRISIAGGNEIDPGSMGLTLFHEHLRLITEVVRWNWPHLYNEDEELKRAIDAVNAAKKYGVKTIIDLTVAGIGCDVRFNEKVAKATGVNIIMGTGFYTYTEIPFYFKNRGIDSLVDAFVHDITIGIQGTNTRAAFVKAVIDSSGLTKDVEMAIRAAAKAHIKTDVPIITHSFVGNKSSLDLIRIFKEEGVDLARTVIGHVGDTDDISFIEQILREGAFIGLDRFGLDIYLPLDKRVKTAIELIKRGWIDQLLLSHDYCPTIDWYPPEVVRSTVPDWTMTLIFEKVIPRMRSEGITEEQINRVLIDNPRRLFTGR
Turning to B3, the inhibition of biofouling entry in the data set on algae and Zebra mussels is “more efficient at inhibiting biofouling than controls”. The “survival of Caenorhabditis elegans” value in the data set on Pseudomonas aeruginosa was “increase survival”.

A word on the Km: it is the substrate concentration at which the rate is half of its maximum. By half-life is commonly meant the time in which the quantity being followed falls by half.

Values taken from patent US20220154156A1, “PROTEINS AND METHODS FOR DISRUPTING BACTERIAL COMMUNICATION” (REGENTS OF THE UNIVERSITY OF MINNESOTA, priority 2019, published 2022).
